This assay concerns the target truncated recombinant mOGT (C-654) (human).

Consider YSDSPSTST [Peptide (…)], for which the km for the peptide in the coupled enzyme assay of OGT transglycosylation (double-reciprocal plot; peptide 0.05 to 0.5 mM, UDP-GlcNAc held at 0.5 mM) was 0.16 mM.

For the origin of these results see publication PMC3056017.
